Like-named read-outs stand apart in the source and are kept apart here.
Tests used:
[1] = biological target: T1, HLA-A2/NY-ESO peptide complex presented on cells (human); assay: flow cytometry on peptide-pulsed T2 cells, scFv 100 nM;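 on result: scFv binding read as gMFI and normalized to the level of HLA/peptide complex displayed on T2 cells, with homologous 9-mer peptides used to probe specificity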
T1 construct: whole, on cells; also called HLA/NY-ESO; T2 cells supplemented with the NY-ESO peptide
Procedure: (§1) The cells were washed 2 times in PBS containing 5% FBS, immobilized with Mildform 10 N (FUJIFILM Wako Pure Chemical Corporation) overnight, and resuspended in PBS containing 5% FBS. The cell suspensions were subjected to detection using a flow cytometer (CantoII, Becton Dickinson). […] The standardized gMFI indicating the binding affinity of each scFv standardized with the amount of the HLA/peptide complex on the T2 cells was determined in accordance with the following equation.
(§2) The 9-mer peptide shown in FIG. 2A was selected as a homologous peptide for evaluation of binding specificity of anti-HLA/NY-ESO scFv. […] The standardized gMFI indicating the binding affinity of each scFv standardized with the amount of the HLA/peptide complex on the T2 cells was determined in accordance with the following equation.

[2] = biological target: T2, HLA-A2 / homologous peptide DOLPP1 complex on T2 cells (human); assay: as above
T2 construct: whole, on cells; also called T2 cells supplemented with homologous peptide DOLPP1
Procedure: as §1, §2

[3] = biological target: T3, HLA-A2 / homologous peptide P2RY8 complex on T2 cells (human); assay: as above
T3 construct: whole, on cells; also called T2 cells supplemented with homologous peptide P2RY8
Procedure: as §1, §2

[4] = biological target: T4, HLA-A2 / homologous peptide CD163 complex on T2 cells (human); assay: as above
T4 construct: whole, on cells; also called T2 cells supplemented with homologous peptide CD163
Procedure: as §1, §2

gp100 [5] = biological target: T5, gp100 (human); assay: as above
T5 construct: cell surface;cell surface complex; also called HLA-A2 / gp100 peptide complex on T2 cells
Procedure: as §1, §2

[6] = biological target: T6, HLA-A2 / homologous peptide PRKD2 complex on T2 cells (human); assay: as above
T6 construct: whole, on cells; also called T2 cells supplemented with homologous peptide PRKD2
Procedure: as §1, §2

[7] = biological target: T7, HLA-A2 / homologous peptide IL20RB complex on T2 cells (human); assay: as above
T7 construct: whole, on cells; also called T2 cells supplemented with homologous peptide IL20RB
Procedure: as §1, §2

[8] = biological target: T8, HLA-A*0201/β2-microglobulin/NY-ESO peptide complex (human, biotinylated with E. coli biotin ligase at the added recognition sequence (biotinylated form used in the ELISA)); assay: SPR (Biacore T200), scFv captured by anti-His antibody, HLA/NY-ESO as analyte, single cycle kinetics
T8 construct: also called HLA/NY-ESO; HLA-A2/NY-ESO
Procedure: With the use of Biacore T200, anti-HLA/NY-ESO scFv was captured as a ligand by the immobilized anti-His antibody, and the antigen was assayed as an analyte. As the antigen, HLA/NY-ESO prepared in 1)-1 was used. The anti-His antibody (His Capture kit, GE Healthcare) was immobilized on Sensor Chip CM5 (GE Healthcare) in accordance with the instructions of the kit. The anti-HLA/NY-ESO scFv constructs diluted to 0.5 μg/ml in HBS-EP+ (GE Healthcare) to be evaluated were brought into contact therewith at 10 μl/min for 60 seconds for immobilization. Thereafter, the samples were added to the HLA/NY-ESO analytes diluted to various levels with HBS-EP+ at a flow rate of 30 μl/min for 120 seconds and dissociation was assayed for 600 seconds.

[9] = biological target: T2, HLA-A2 / homologous peptide DOLPP1 …; assay: flow cytometry, peptide-pulsed T2 cells
[10] = biological target: T3, HLA-A2 / homologous peptide P2RY8 …; assay: flow cytometry, peptide-pulsed T2 cells
[11] = biological target: T4, HLA-A2 / homologous peptide CD163 …; assay: flow cytometry, peptide-pulsed T2 cells
[12] = biological target: T6, HLA-A2 / homologous peptide PRKD2 …; assay: flow cytometry, peptide-pulsed T2 cells
[13] = biological target: T7, HLA-A2 / homologous peptide IL20RB …; assay: flow cytometry, peptide-pulsed T2 cells
[14] = biological target: T1, HLA-A2/NY-ESO peptide complex presented …; assay: flow cytometry on peptide-pulsed T2 cells, scFv 100 nM; remark: listed apart in the source;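 on result: scFv binding read as gMFI and normalized to the level of HLA/peptide complex displayed on T2 cells, with homologous 9-mer peptides used to probe specificity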
Procedure: (§3) The resultant was washed two times in the AIM-V medium containing 20% FBS, the concentration thereof was adjusted to an adequate level with PBS containing 5% FBS, the LIVE/DEAD Fixable Dead Cell Stain Kit (Thermo Fisher Scientific) was added thereto, and the resultant was allowed to stand at 4° C. for 30 minutes. The cells were washed 2 times in PBS containing 5% FBS, the washed cells were divided into two groups, the cells in PBS containing 5% FBS were seeded on a 96-well U-bottom microplate at 10⁵ cells/well, and the plate was subjected to centrifugation, followed by removal of the supernatant. Anti-HLA/NY-ESO scFv diluted to 100 nM with PBS containing 5% FBS was added at 25 μl/well to one of the divided cells, and the resultant was allowed to stand at 4° C. for 30 minutes. The cells were washed 2 times in PBS containing 5% FBS, Penta-His Alexa Fluor488 (QIAGEN) diluted in PBS containing 5% FBS was added at 25 μl/well, and the resultant was allowed to stand at 4° C. for 30 minutes. The cells were washed 2 times in PBS containing 5% FBS, Anti-mouse-IgG Alexa Fluor488 (Thermo Fisher Scientific) diluted in PBS containing 5% FBS was added at 25 μl/well, and the resultant was allowed to stand at 4° C. for 30 minutes. The cells were washed 2 times in PBS containing 5% FBS, immobilized with Mildform 10 N (FUJIFILM Wako Pure Chemical Corporation) overnight, and resuspended in PBS containing 5% FBS. […] The cells were washed 2 times in PBS containing 5% FBS, immobilized with Mildform 10 N (FUJIFILM Wako Pure Chemical Corporation) overnight, and resuspended in PBS containing 5% FBS. The cell suspensions were subjected to detection using a flow cytometer (CantoII, Becton Dickinson). […] The standardized gMFI indicating the binding affinity of each scFv standardized with the amount of the HLA/peptide complex on the T2 cells was determined in accordance with the following equation.

gp100 [15] = biological target: T5, gp100; assay: as above; remark: listed apart in the source
Procedure: as §3

Binder | standardized gMFI [1] | standardized gMFI [2] | standardized gMFI [3] | standardized gMFI [4] | standardized gMFI (gp100 [5]) | standardized gMFI [6] | standardized gMFI [7] | Kd [8] [nM] | binding result [9] | binding result [10] | binding result [11] | binding result [12] | binding result [13] | standardized gMFI [14] | standardized gMFI (gp100 [15]) | binding result [2] | binding result [3] | binding result [4] | binding result [7]
NYA-0001 (scFv, also called NYA-0001 tag adduct; NY-R119 expressed in a cultured mammalian cell) scFv: GEVQLVESGGGVVQPGRSLTPSCSASGFSIRSYDIHWVRQAPGKGLEWVATISYDGSQKYFADSVKGRFTIFRDESENMVYLQMSGLRVEDTAVYHCARGSSGHYEAFDIWGQGTMVTVSSGGGGSGGGGSGGGGSQSVLTQPPSVSAAPGQKVTISCSGSSSNIGNNYVSWYQQLPGTAPKLLIYDNNKRPSGIPDRFSGSKSGTSATLGITGLQTGDEADYYCGTWDSSLSAPWVFGGGTKVTVLGAAAGAGGDYKDDDDKGAAAHHHHHH | 5.12 | 0.37 | 0.73 | 0.48 | 0.31 | 0.33 | 0.42 | 33.8 | no binding (tested: 100 nM) | no binding (tested: 100 nM) | no binding (tested: 100 nM) | no binding (tested: 100 nM) | no binding (tested: 100 nM) | 5.75 | 0.43 | – | – | – | –
NYA-1143 (scFv) scFv: GEVQLVESGGGVVQPGRSLTPSCSASGFSIRSYDIHWVRLAPGKGLEWVATISYDGSQKYFADSVKGRFTIFRDESENMVYLQMSGLRVEDTAVYHCARGSSGHYEAFDIWGQGTMVTVSSGGGGSGGGGSGGGGSQSVLTQPPSVSAAPGQKVTISCSGSSSNIGNWYVSWYQQLPGTAPKLLIYDNNKRPSGIPDRFSGSKSGTSATLGITGLQTGDEADYYCGTWDSSLSAPWVFGGGTKVTVLGAAAGAGGDYKDDDDKGAAAHHHHHH | 13.4 | 0.37 | 0.69 | 0.46 | 0.3 | 0.32 | 0.42 | 1 | no binding (tested: 100 nM) | no binding (tested: 100 nM) | no binding (tested: 100 nM) | no binding (tested: 100 nM) | no binding (tested: 100 nM) | 12.9 | 0.41 | – | – | – | –
NYA-1154 (scFv) scFv: GEVQLVESGGGVVQPGRSLTPSCSASGFSIRSYDMHWVRQAPGKGLEWVATISYDGSQKYFADSVKGRFTIFRDESENMVYLQMSGLRVEDTAVYHCARGSSNHYEAFDIWGQGTMVTVSSGGGGSGGGGSGGGGSQSVLTQPPSVSAAPGQKVTISCSGSSSNIGNNYVSWYQRLPGTAPKLLIYDNNKRPSGIPDRFSGSKSGTSATLGITGLQTGDEADYYCGAWDSSLSAPWVFGGGTKVTVLGAAAGAGGDYKDDDDKGAAAHHHHHH | 13.8 | 0.46 | 0.65 | 0.54 | 0.31 | 2.72 | 0.51 | – | – | – | – | – | – | 9.98 | 0.46 | no binding (tested: 100 nM) | no binding (tested: 100 nM) | no binding (tested: 100 nM) | no binding (tested: 100 nM)
NYA-1163 (scFv) scFv: GEVQLVESGGGVVQPGRSLTPSCSASGFSIRSYDIHWVRLAPGKGLEWVATISYDGSQKYFADSVKGRFTIFRDESENMVYLQMSGLRVEDTAVYHCARGSSGHYEAFDIWGQGTMVTVSSGGGGSGGGGSGGGGSQSVLTQPPSVSAAPGQKVTISCSGSSSNIGNNYVSWYQQLPGTAPKLLIYDNNKRPSGIPDRFSGSKSGTSATLGITGLQTGDEADYYCGTWDSSLSAPWVFGGGTKVTVLGAAAGAGGDYKDDDDKGAAAHHHHHH | 4.21 | 0.36 | 0.69 | 0.46 | 0.3 | 0.31 | 0.41 | 13 | no binding (tested: 100 nM) | no binding (tested: 100 nM) | no binding (tested: 100 nM) | no binding (tested: 100 nM) | no binding (tested: 100 nM) | 3.67 | 0.44 | – | – | – | –
NYA-2023 (scFv) scFv: GEVQLVESGGGVVQPGRSLTPSCSASGFSIRSYDIHWVRQAPGKGLEWVATISYDGSQKYFADSVKGRFTIFRDESENMVYLQMSGLRVEDTAVYHCARGSSGHYEAFDIWGQGTMVTVSSGGGGSGGGGSGGGGSQSVLTQPPSVSAAPGQKVTISCSGSSSNIGNWYVSWYQQLPGTAPKLLIYDNNKRPSGIPDRFSGSKSGTSATLGITGLQTGDEADYYCGTWDSSLSAPWVFGGGTKVTVLGAAAGAGGDYKDDDDKGAAAHHHHHH | 10.1 | 0.42 | 0.7 | 0.48 | 0.3 | 0.42 | 0.42 | 2.4 | no binding (tested: 100 nM) | no binding (tested: 100 nM) | no binding (tested: 100 nM) | no binding (tested: 100 nM) | no binding (tested: 100 nM) | 8.85 | 0.4 | – | – | – | –
NYC-0003 (scFv, not shown: small tags and cut ends, also called 3M4E5 scFv; NYC-0003 tag adduct) scFv: EVQLLESGGGLVQPGGSLRLSCAASGFTFSTYQMSWVRQAPGKGLEWVSGIVSSGGSTAYADSVKGRFTISRDNSKNTLYLQMNSLRAEDTAVYYCAGELLPYYGMDVWGQGTTVTVSSGGGGSGGGGSGGGGSQSELTQPRSVSGSPGQSVTISCTGTSRDVGGYNYVSWYQQHPGKAPKLIIHDVIERSSGVPDRFSGSKSGNTASLTISGLQAEDEADYYCWSFAGSYYVFGTGTDVTVL | 5.22 | 0.38 | 2.01 | 1.08 | 0.32 | 1.53 | 0.43 | 8.1 | – | – | – | – | – | 3.74 | 0.39 | – | – | – | –
NYC-0004 (scFv, not shown: small tags and cut ends, also called T1 scFv; NYC-0004 tag adduct) scFv: EVQLLESGGGLVQPGGSLRLSCAASGFTFSTYQMSWVRQAPGKGLEWVSGIVSSGGSTAYADSVKGRFTISRDNSKNTLYLQMNSLRAEDTAVYYCAGELLPYYGMDVWGQGTTVTVSSGGGGSGGGGSGGGGSQSELTQPRSVSGSPGQSVTISCTGTERDVGGYNYVSWYQQHPGKAPKLIIHDVIERSSGVPDRFSGSKSGNTASLTISGLQAEDEADYYCWSFAGGYYVFGTGTDVTVL | 9.19 | 0.39 | 1.98 | 0.49 | 0.32 | 3.41 | 0.43 | 2.8 | – | – | – | – | – | 6.02 | 0.37 | – | – | – | –

Source: patent US20230348616A1 (MIE UNIVERSITY, published 2023)
